How the values were obtained:
[1] = target: human insulin receptor (human) (UniProt P06213); test: FACS, serum-starved IM-9 cells; insulin state of the control not stated
[2] = target: human insulin receptor (human) (UniProt P06213); test: FACS, serum-starved IM-9 cells, no insulin
[3] = target: human insulin receptor complexed with human insulin (human) (UniProt P06213); test: KinExA, affinity with insulin against affinity without insulin
[4] = target: human insulin receptor (human) (UniProt P06213); test: KinExA antibody depletion by hINSR8-CHOK1 cells, without insulin
[5] = target: human insulin receptor complexed with human insulin (human) (UniProt P06213); test: FACS, serum-starved IM-9 cells pre-exposed to human insulin
[6] = target: human insulin receptor complexed with human insulin (human) (UniProt P06213); test: KinExA antibody depletion by hINSR8-CHOK1 cells, with 175 nM insulin

| MFI [1] | MFI [2] | Fold Improvement with Insulin [3] [fold] | Kd [4] [nM] | MFI [5] | Kd [6] [nM] | Substance |
| --- | --- | --- | --- | --- | --- | --- |
| 3.83 | – | – | – | – | – | Neg Control |
| – | 18.4 | 3 | 0.48 | 34.9 | 0.16 | 83-7 (antibody) |

From US20160009800A1
